Test results as given in patent publication US20250179196A1 (Janssen / Centocor, published 2025).

T1: rat IL-23R extracellular domain (ECD) protein (rat)
T1 construct: also called rat IL-23R ECD; F1LX96 amino acids 24-354
T1 chain: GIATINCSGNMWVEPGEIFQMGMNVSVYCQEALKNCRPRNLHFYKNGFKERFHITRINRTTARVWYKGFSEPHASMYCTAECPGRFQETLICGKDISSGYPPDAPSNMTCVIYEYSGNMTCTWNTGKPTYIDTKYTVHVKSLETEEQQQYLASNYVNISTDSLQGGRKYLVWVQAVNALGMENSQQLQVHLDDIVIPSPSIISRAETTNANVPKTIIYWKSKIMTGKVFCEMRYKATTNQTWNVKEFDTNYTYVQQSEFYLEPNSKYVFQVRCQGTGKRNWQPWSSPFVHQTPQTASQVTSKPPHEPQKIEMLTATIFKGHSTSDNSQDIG

T2: Recombinant human IL-23 receptor (IL-23R) extracellular domain (ECD) protein (human, UniProt Q5VWK5 24-355)
T2 construct: also called human IL-23R ECD; hu IL-23R ECD
T2 sequence: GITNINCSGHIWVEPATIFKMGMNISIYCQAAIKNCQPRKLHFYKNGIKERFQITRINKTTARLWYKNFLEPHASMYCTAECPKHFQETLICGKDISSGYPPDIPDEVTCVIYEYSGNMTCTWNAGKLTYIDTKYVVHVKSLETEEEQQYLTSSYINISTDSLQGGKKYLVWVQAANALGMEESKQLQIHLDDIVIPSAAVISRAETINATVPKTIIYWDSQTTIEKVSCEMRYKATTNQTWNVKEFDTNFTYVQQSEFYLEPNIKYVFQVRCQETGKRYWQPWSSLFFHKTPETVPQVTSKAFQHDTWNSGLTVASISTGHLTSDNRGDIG

B1: I23RB270 (antibody, mouse IgG2a, kappa, V domains shown)
VH: QVQLVQSGAEVKKPGSSVKVSCKASGGTFDSYAISWVRQAPGQGLEWMGGIIPISGYANYAQKFQGRVTITADESTSTAYMELSSLRSEDTAVYYCARDLSGGYLGLRTLYYYYFDYWGQGTLVTVSS
VL: EIVLTQSPATLSLSPGERATLSCRASQSVSSYLAWYQQKPGQAPRLLIYDASNRATGIPARFSGSGSGTDFTLTISSLEPEDFAVYYCQQRSNWPLTFGQGTKVEIKR
notes: phage display; human V regions, mouse IgG2a/kappa constant regions
B2: I23RB268 (antibody, mouse IgG2a, kappa, V domains shown)
VH: QVQLVQSGAEVKKPGSSVKVSCKASGGTFSSYYIHWVRQAPGQGLEWMGGIIPIFGYANYAQKFQGRVTITADESTSTAYMELSSLRSEDTAVYYCARDPGSYGSVYYRRSYYFDYWGQGTLVTVSS
VL: EIVLTQSPATLSLSPGERATLSCRASQSVSSYLAWYQQKPGQAPRLLIYDASNRATGIPARFSGSGSGTDFTLTISSLEPEDFAVYYCQQRSNWPLTFGQGTKVEIKR
notes: as for B1
B3: I23RB93 (antibody, mouse IgG2a, kappa, V domains shown)
VH: QVQLKESGPGLVQPSQSLSITCTVSGFSLTSYGVHWVRQSPGKGLEWLGVIWSGVSTDYNAAFISRLSISKDNSKSQVFFKMNSLQADDTAIYYCARSRGSYYFDYWGQGTTLTVSS
VL: DIKMTQSPATLSVTPGDSVSLFCRASQSISNNLHWYQQKSHESPRLLIKYASQSISGIPSRFSGSGSGTDFTLSINSVETEDFGMYFCQQSNSWPLTFGGGTKLEIKR
notes: mouse immunization; mouse IgG2a/kappa
B4: I23RB318 (antibody, mouse IgG2a, kappa, V domains shown)
VH: QVQLVQSGAEVKKPGSSVKVSCKASGGTFSSYAISWVRQAPGQGLEWMGGIIPIFGTANYAQKFQGRVTITADESTSTAYMELSSLRSEDTAVYYCARVRARHRGSFDYWGQGTLVTVSS
VL: DIQMTQSPSSLSASVGDRVTITCRASQSIDRWLNWYQQKPGKAPKLLIYYASSLQSGVPSRFSGSGSGTDFTLTISSLQPEDFATYYCQQSYSTPLTFGQGTKVEIKR
notes: as for B1
B5: I23RB313 (antibody, mouse IgG2a, kappa, V domains shown)
VH: QVQLVQSGAEVKKPGSSVKVSCKASGGTFSSYGISWVRQAPGQGLEWMGWISAIFGTTNYAQKFQGRVTITADESTSTAYMELSSLRSEDTAVYYCARGTVPGFDYWGQGTLVTVSS
VL: DIQMTQSPSSLSASVGDRVTITCRASQSIGEDLNWYQQKPGKAPKLLIYAASSLQSGVPSRFSGSGSGTDFTLTISSLQPEDFATYYCQQSYSTPLTFGQGTKVEIKR
notes: as for B1
B6: I23RB269 (antibody, mouse IgG2a, kappa, V domains shown)
VH: QVQLVQSGAEVKKPGSSVKVSCKASGGTFSDASISWVRQAPGQGLEWMGTIIPISGNANYAQKFQGRVTITADESTSTAYMELSSLRSEDTAVYYCARDRYVWYYWDGYFDYWGQGTLVTVSS
VL: not shown
notes: as for B1
B7: I23RB67 (antibody, mouse IgG2a, kappa, V domains shown)
VH: EVQLQQSGAELVKPGASVKLSCKASGYTFTSYWINWVKQRPGQGLEWIGNIYPGSSSTNYNEKFKSKATLTVDTSSSTAYMQLSSLTSDDSAVYYCARSAYGNRLAMDYWGQGTTLTVSS
VL: DVVMTQSHKFMSTSVGDRVSITCKASQDVSTAVAWYQQKPGQSPKLLIYSAFYRYTGVPDRFTGSGSGTDFTFTISSVQAEDLAVYYCQQHYSTPYTFGGGTKLELKR
notes: as for B3

Tests used:
[1] = molecular target: T1, rat IL-23R extracellular domain (ECD) …; assay: SPR Biacore 8K, supernatant
Method: (§1) Affinity by SPR using Biacore 8K. Affinity measurements using Surface Plasmon Resonance (SPR) were performed using a Biacore 8K system (Cytiva). […] Approximately 9000-10000 RU (response units) of mAbs were immobilized. The kinetic experiments were performed at 25° C. in running buffer 1× of (HBS-P+ Buffer 10× (Cytiva #BR100671)+100 μg/ml BSA). To perform kinetic experiments, approximately 150 RU of mAbs were captured followed by injections of human IL-23R or rat IL-23R at concentrations ranging from 0.8 nM to 500 nM (in a 5-fold serial dilution). The association phase was monitored for 3 minutes at 50 μL/min, then followed by 30 minutes of buffer flow (dissociation phase). […] The collected data were processed using Biacore insight Evaluation software (Version 3.0.12.15655). The kinetic analysis of the data was performed using a Langmuir 1:1 binding model. The result for each mAb was reported in the format of Ka (On-rate), Kd (Off-rate) and KD (equilibrium dissociation constant).

[2] = molecular target: T2, Recombinant human IL-23 receptor …; assay: SPR Biacore 8K, supernatant, analysis 1
Method: as §1

[3] = molecular target: T2, Recombinant human IL-23 receptor …; assay: SPR Biacore 8K, supernatant, analysis 2
Method: as §1

Binder	binding result [1]	Kd [2] [nM]	koff [2] [s⁻¹]	kon [2] [M⁻¹ s⁻¹]	Kd [3] [nM]	koff [3] [s⁻¹]	kon [3] [M⁻¹ s⁻¹]
B1	no binding (tested: 500 nM)	1.91	0.00102	535000	2.46	0.00101	409000
B2	no binding (tested: 500 nM)	12	0.000273	22800	18.9	0.000308	16300
B3	no binding (tested: 500 nM)	2.88	0.00138	480000	2.9	0.00123	423000
B4	no binding (tested: 500 nM)	21.3	0.00167	78400	21.4	0.00156	72900
B5	no binding (tested: 500 nM)	< 4.98	< 2.89e-05	5800	4.85	0.000108	22300
B6	no binding (tested: 500 nM)	1.09	0.000514	473000	1.41	0.000542	385000
B7	no binding (tested: 500 nM)				25.4	0.0172	677000
